Test results taken from the supplement of paper PMC10126150.
± gives the standard deviation of the averaged measurements.

Tested on: ATP
Assay: switch fluorescence ratio, 500 uM ATP over buffer (Cy3 cluster intensity, sum of 5 cycles each) (fold (ratio)); higher = stronger signal-on switching upon ATP binding; sequences stand for … in TCGTCGGCAGCGTCAGATGTGTATAAGAGACAGTTTTTTTTTTTTTTTTTTTTTTTTT…TC
Settings: aptamer strand: ATP DNA aptamer (quencher-CACCTGGGGGAGTATTGCGGAGGAAGG + anchor), 100 nM annealed; ATP concentration: 500 uM
Method in brief: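 Cy3-labelled switching-strand clusters on a modified Illumina MiSeq flow-cell were annealed to 100 nM quencher-labelled ATP aptamer, imaged in selection buffer, then imaged after 15 min with 500 uM ATP at 22 °C. Five buffer/ATP cycles ran, with NaOH stripping and re-annealing between them. The fluorescence ratio is summed target-cycle over summed buffer-cycle Cy3 intensity per cluster, averaged per switch-domain sequence. Clusters outside 100-1000 RFU were excluded.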
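Also: ATP exposure 15 min at 22 °C before imaging.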

| Sequence | switch fluorescence ratio |
| --- | --- |
| GGAGGGAGGT | 1.01 ± 0.012 |
| GGAGGGAGTG | 0.98 ± 0.025 |
| GGAGGGCGTG | 0.988 ± 0.021 |
| GGAGGGGCAC | 0.979 ± 0.036 |
| GGAGGGGGAT | 1.03 ± 0.043 |
| GGAGGGGGCG | 0.999 ± 0.061 |
| GGAGGGGGGT | 1.01 ± 0.023 |
| GGAGGGGGTT | 1.01 ± 0.051 |
| GGAGGGGTTG | 1.04 ± 0.015 |
| GGAGGGTGGT | 0.9906 ± 0.0019 |
| GGAGGTGGGT | 1.01 ± 0.03 |
| GGAGGTTGGC | 1.02 ± 0.07 |
| GGAGGTTTGG | 0.992 ± 0.044 |
| GGAGTAATTT | 1.07 ± 0.016 |
| GGAGTAGACT | 1.02 ± 0.02 |
| GGAGTAGCTA | 1.03 ± 0.04 |
| GGAGTAGGGA | 1.02 ± 0.031 |
| GGAGTGTTTC | 1.01 ± 0.016 |
| GGAGTTAGGA | 0.9866 ± 0.0098 |
| GGAGTTAGTC | 1.01 ± 0.021 |
| GGAGTTATAA | 1.05 ± 0.034 |
| GGAGTTTAAG | 0.996 ± 0.039 |
| GGAGTTTCGG | 1 ± 0.031 |
| GGATAACGTA | 1.01 ± 0.049 |
| GGATAGCCGA | 0.99 ± 0.086 |

| Sequence | switch fluorescence ratio |
| --- | --- |
| GGATAGCTCG | 0.987 ± 0.041 |
| GGATAGGATG | 0.974 ± 0.022 |
| GGATAGTGGT | 1.01 ± 0.0079 |
| GGATATACGT | 1.01 ± 0.017 |
| GGATATATTG | 1.02 ± 0.024 |
| GGATATCGAG | 0.9982 ± 0.0069 |
| GGATATCGTT | 1.032 ± 0.0059 |
| GGATATGGCA | 1.01 ± 0.037 |
| GGATATGGTT | 0.987 ± 0.034 |
| GGATATGTTG | 0.994 ± 0.019 |
| GGATATTTTT | 1.01 ± 0.016 |
| GGATCACTTA | 1.02 ± 0.023 |
| GGATCATGTG | 1.004 ± 0.0049 |
| GGATCCGAGC | 1.03 ± 0.033 |
| GGATCGAGAC | 0.9755 ± 0.0034 |
| GGATCTTAAG | 0.991 ± 0.035 |
| GGATGACCTA | 0.976 ± 0.021 |
| GGATGACGTC | 1.035 ± 0.0091 |
| GGATGACTGG | 0.9993 ± 0.0061 |
| GGATGAGGGA | 0.957 ± 0.029 |
| GGATGAGTGC | 0.99 ± 0.023 |
| GGATGATCGT | 0.954 ± 0.029 |
| GGATGATGGG | 1.01 ± 0.046 |
| GGATGCATTG | 0.972 ± 0.011 |
| GGATGCTAGG | 1.01 ± 0.048 |

| Sequence | switch fluorescence ratio |
| --- | --- |
| GGATGGACTG | 0.937 ± 0.035 |
| GGATGGGGTC | 0.975 ± 0.02 |
| GGATGGTTCG | 0.972 ± 0.023 |
| GGATGGTTGC | 1.03 ± 0.021 |
| GGATGTCCAG | 0.947 ± 0.028 |
| GGATGTGCTG | 1.04 ± 0.049 |
| GGATGTTATT | 0.9915 ± 0.0094 |
| GGATGTTCGT | 0.9911 ± 0.0083 |
| GGATTAGGGC | 1.02 ± 0.041 |
| GGATTAGTGA | 0.964 ± 0.036 |
| GGATTCAAAG | 0.993 ± 0.015 |
| GGATTCTAGG | 0.969 ± 0.02 |
| GGATTCTGGG | 0.963 ± 0.042 |
| GGATTCTGTG | 0.969 ± 0.018 |
| GGATTGAATG | 0.972 ± 0.025 |
| GGATTGGATG | 0.983 ± 0.046 |
| GGATTGGGCA | 1.01 ± 0.021 |
| GGATTGGTAA | 0.9919 ± 0.00028 |
| GGATTGTGAG | 0.987 ± 0.042 |
| GGATTTACGT | 1.02 ± 0.023 |
| GGATTTCGTG | 0.986 ± 0.024 |
| GGATTTGAGT | 0.976 ± 0.015 |
| GGATTTGCCA | 0.989 ± 0.038 |
| GGATTTGGGT | 0.981 ± 0.017 |
| GGATTTTGGG | 1.01 ± 0.028 |

| Sequence | switch fluorescence ratio |
| --- | --- |
| GGATTTTTGT | 0.997 ± 0.022 |
| GGATTTTTTT | 1 ± 0.032 |
| GGCAACGGGG | 1.01 ± 0.036 |
| GGCAATTAGG | 1.04 ± 0.048 |
| GGCAATTCTC | 3.9 ± 0.31 |
| GGCAATTGGA | 1.01 ± 0.011 |
| GGCACATTTT | 1.01 ± 0.022 |
| GGCACCTTAT | 1.06 ± 0.034 |
| GGCACTAGAC | 1.09 ± 0.11 |
| GGCAGAAAAT | 1.01 ± 0.032 |
| GGCAGAAAGT | 1.014 ± 0.0027 |
| GGCAGACGGT | 1.006 ± 0.0016 |
| GGCAGAGATG | 1.02 ± 0.046 |
| GGCAGGATAT | 1.016 ± 0.0056 |
| GGCATATGTT | 1 ± 0.021 |
| GGCATCGAAG | 1 ± 0.027 |
| GGCATCTAAG | 0.997 ± 0.019 |
| GGCATCTGGG | 1.026 ± 0.0011 |
| GGCATTATAA | 0.99 ± 0.025 |
| GGCATTCGTG | 0.9743 ± 0.0049 |
| GGCATTGAGG | 0.988 ± 0.04 |
| GGCCAAAGGG | 0.9965 ± 0.0036 |
| GGCCAAATCC | 1.006 ± 0.0056 |
| GGCCAAGGGA | 1.016 ± 0.0069 |
| GGCCAGGAGA | 1.04 ± 0.021 |
